# Source: patent publication US20240018237A1 (SICHUAN KELUN BIOTECH BIOPHARMACEUTICAL, published 2024)
# Where a chain is given by its changes, count along the chain named.
# B1: 3D8-Hu46 (antibody, human IgG1, kappa, V domains shown)
# VH: EVQLVESGGGLVQPGGSLRLSCAASGFTFSSYAMSWVRQAPGKGLEWVSSINSGGSTYYPDSVKGRFTISRDNSKNTLYLQMNSLRAEDTAVYYCARVNYYGYGDYAMDYWGQGTLVTVSS
# VL: DIQMTQSPSSLSASVGDRVTITCQASQDINSYLSWFQQKPGKSPKTLIYRANRLVTGVPSRFSGSGSGTDYTFTISSLQPEDIATYYCLQYDEFPYTFGGGTKLEIKR
# notes: humanized, human IgG1 / kappa
# B2: 38F8-Hu27 (antibody, human IgG1, kappa, V domains shown)
# VH: EVQLVESGGGLVQPGGSLRLSCAASGFTFSNYAMSWVRQAPGKGLEWVASISSGGPTYYPDSVKGRFTVSRDNSKNTLYLQMNSLRAEDTAVYYCARGYRYDVNWYFDVWGAGTMVTVSS
# VL: B1 VL with N30S, S31N, S34T, Y49H, T85I, L104V
# notes: humanized, human IgG1 / kappa
# B3: 3D8-Hu57 (antibody, human IgG1, kappa, V domains shown)
# VH: B1 VH with D72E, S74A, T77S, E88G
# VL: B1 VL with N30S, S31N
# notes: humanized, human IgG1 / kappa
# B4: 3D8-HuC84 (antibody, human IgG1, kappa, V domains shown)
# VH: B1 VH with G42E, G44R, N52S
# VL: B1 VL with N30S, S31N, S34T, Y49H, Y71F, L104V
# notes: humanized, human IgG1 / kappa
# B5: 3D8-Hu27 (antibody, human IgG1, kappa, V domains shown)
# VH: B1 VH with S49A, S74A, T77S
# VL: B1 VL with N30S, S31N
# notes: humanized, human IgG1 / kappa
# B6: 3D8-Hu47 (antibody, human IgG1, kappa, V domains shown)
# VH: B1 VH
# VL: B1 VL with N30S, S31N
# notes: humanized, human IgG1 / kappa
# B7: 3D8-HuC44 (antibody, human IgG1, kappa, V domains shown)
# VH: B1 VH
# VL: B1 VL with N30S, S31N, S34T, Y49H, Y71F, L104V
# notes: humanized, human IgG1 / kappa
# B8: 3D8-HuC54 (antibody, human IgG1, kappa, V domains shown)
# VH: B1 VH with D72E, S74A, T77S, E88G
# VL: B1 VL with N30S, S31N, S34T, Y49H, Y71F, L104V
# notes: humanized, human IgG1 / kappa
# B9: 3D8-Hu25 (antibody, human IgG1, kappa, V domains shown)
# VH: B1 VH with S49A, S74A, T77S
# VL: B1 VL with S43A, Y71F
# notes: humanized, human IgG1 / kappa
# B10: 3D8-HuC94 (antibody, human IgG1, kappa, V domains shown)
# VH: B1 VH with G42E, G44R, N52S, S53N
# VL: B1 VL with N30S, S31N, S34T, Y49H, Y71F, L104V
# notes: humanized, human IgG1 / kappa
# B11: 3D8-Hu56 (antibody, human IgG1, kappa, V domains shown)
# VH: B1 VH with D72E, S74A, T77S, E88G
# VL: B1 VL
# notes: humanized, human IgG1 / kappa
# B12: 38F8-Hu16 (antibody, human IgG1, kappa, V domains shown)
# VH: B2 VH with A23T, P60A, K75R, A112R, M115L
# VL: B1 VL with S34T, Y49H, Y71F, L104V
# notes: humanized, human IgG1 / kappa
# B13: 3D8-Hu95 (antibody, human IgG1, kappa, V domains shown)
# VH: B1 VH with G42E, G44R, N52S, S53N
# VL: B1 VL with S43A, Y71F
# notes: humanized, human IgG1 / kappa
# B14: 3D8-Hu26 (antibody, human IgG1, kappa, V domains shown)
# VH: B1 VH with S49A, S74A, T77S
# VL: B1 VL
# notes: humanized, human IgG1 / kappa
# B15: 38F8-Hu28 (antibody, human IgG1, kappa, V domains shown)
# VH: B2 VH
# VL: B1 VL with S34T, Y49H, T85I, L104V
# notes: humanized, human IgG1 / kappa
# B16: 3D8-Hu96 (antibody, human IgG1, kappa, V domains shown)
# VH: B1 VH with G42E, G44R, N52S, S53N
# VL: B1 VL
# notes: humanized, human IgG1 / kappa
# B17: 38F8-Hu26 (antibody, human IgG1, kappa, V domains shown)
# VH: B2 VH
# VL: B1 VL with S34T, Y49H, Y71F, L104V
# notes: humanized, human IgG1 / kappa
# B18: 3D8-Hu87 (antibody, human IgG1, kappa, V domains shown)
# VH: B1 VH with G42E, G44R, N52S
# VL: B1 VL with N30S, S31N
# notes: humanized, human IgG1 / kappa
# B19: 38F8-Hu17 (antibody, human IgG1, kappa, V domains shown)
# VH: B2 VH with A23T, P60A, K75R, A112R, M115L
# VL: B1 VL with N30S, S31N, S34T, Y49H, T85I, L104V
# notes: humanized, human IgG1 / kappa
# B20: 3D8-Hu55 (antibody, human IgG1, kappa, V domains shown)
# VH: B1 VH with D72E, S74A, T77S, E88G
# VL: B1 VL with S43A, Y71F
# notes: humanized, human IgG1 / kappa
# B21: 3D8-Hu86 (antibody, human IgG1, kappa, V domains shown)
# VH: B1 VH with G42E, G44R, N52S
# VL: B1 VL
# notes: humanized, human IgG1 / kappa
# B22: 3D8-Hu97 (antibody, human IgG1, kappa, V domains shown)
# VH: B1 VH with G42E, G44R, N52S, S53N
# VL: B1 VL with N30S, S31N
# notes: humanized, human IgG1 / kappa
# B23: 38F8-Hu24 (antibody, human IgG1, kappa, V domains shown)
# VH: B2 VH
# VL: B1 VL with N30S, S31N, S34T, Y49H, Y71F, L104V
# notes: humanized, human IgG1 / kappa
# B24: 3D8-Hu45 (antibody, human IgG1, kappa, V domains shown)
# VH: B1 VH
# VL: B1 VL with S43A, Y71F
# notes: humanized, human IgG1 / kappa
# B25: 38F8-Hu14 (antibody, human IgG1, kappa, V domains shown)
# VH: B2 VH with A23T, P60A, K75R, A112R, M115L
# VL: B1 VL with N30S, S31N, S34T, Y49H, Y71F, L104V
# notes: humanized, human IgG1 / kappa
# B26: 38F8-Hu18 (antibody, human IgG1, kappa, V domains shown)
# VH: B2 VH with A23T, P60A, K75R, A112R, M115L
# VL: B1 VL with S34T, Y49H, T85I, L104V
# notes: humanized, human IgG1 / kappa
# B27: 3D8-Hu85 (antibody, human IgG1, kappa, V domains shown)
# VH: B1 VH with G42E, G44R, N52S
# VL: B1 VL with S43A, Y71F
# notes: humanized, human IgG1 / kappa
# Biological target: T1, human ROR1 (full-length, on the cell surface) (human, UniProt Q01973 30-937)
# T1 construct: whole, on cells; the tumour cell lines carry their own ROR1; also called Ba/F3-ROR1 cells; Jeko-1
# Experiment: flow cytometry, HT-29 cells
# Procedure: (§1) The affinities of the anti-human ROR1 humanized antibodies to Ba/F3-ROR1, Jeko-1, HT-29 and A549 cells were detected by flow cytometry. The specific experimental steps were as follows: the BaBF3-ROR1, Jeko-1, HT-29 and A549 cells were incubated with the purified humanized antibodies of different concentration gradients on ice for 30 minutes, and the anti-ROR1 antibody UC961 with human IgG1 and the anti-TNP antibody were used as positive and negative controls, respectively.
# T1 sequence (Q01973 30-937): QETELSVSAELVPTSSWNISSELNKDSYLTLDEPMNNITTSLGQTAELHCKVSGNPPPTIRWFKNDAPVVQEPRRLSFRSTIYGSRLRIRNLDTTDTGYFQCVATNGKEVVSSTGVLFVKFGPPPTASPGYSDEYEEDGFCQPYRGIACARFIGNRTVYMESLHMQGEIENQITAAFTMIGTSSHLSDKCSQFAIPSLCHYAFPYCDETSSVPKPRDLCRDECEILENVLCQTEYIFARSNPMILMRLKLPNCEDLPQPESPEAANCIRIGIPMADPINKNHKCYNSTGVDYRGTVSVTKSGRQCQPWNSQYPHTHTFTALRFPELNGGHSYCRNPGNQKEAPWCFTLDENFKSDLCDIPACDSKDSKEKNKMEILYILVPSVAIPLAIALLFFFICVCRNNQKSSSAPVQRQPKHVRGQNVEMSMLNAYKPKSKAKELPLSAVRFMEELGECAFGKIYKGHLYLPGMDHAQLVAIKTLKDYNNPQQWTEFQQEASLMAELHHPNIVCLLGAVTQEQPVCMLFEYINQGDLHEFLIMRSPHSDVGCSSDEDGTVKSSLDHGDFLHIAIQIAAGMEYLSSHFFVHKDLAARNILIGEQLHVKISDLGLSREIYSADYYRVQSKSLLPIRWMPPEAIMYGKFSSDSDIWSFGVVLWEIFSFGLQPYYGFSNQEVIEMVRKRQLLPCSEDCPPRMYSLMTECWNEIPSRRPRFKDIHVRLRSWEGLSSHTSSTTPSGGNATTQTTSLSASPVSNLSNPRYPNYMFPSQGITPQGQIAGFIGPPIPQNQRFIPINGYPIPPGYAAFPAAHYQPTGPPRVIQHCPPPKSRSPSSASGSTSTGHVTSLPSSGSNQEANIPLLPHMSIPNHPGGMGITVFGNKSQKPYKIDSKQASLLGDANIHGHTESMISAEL
row,Binder,EC50
1,B1,0.35 nM
2,B2,0.25 nM
3,B3,0.28 nM
4,B4,1.3 nM
5,B5,0.27 nM
6,B6,0.29 nM
7,B7,0.16 nM
8,B8,0.19 nM
9,B9,0.23 nM
10,B10,0.74 nM
11,B11,0.29 nM
12,B12,0.31 nM
13,B13,0.36 nM
14,B14,0.26 nM
15,B15,0.24 nM
16,B16,0.3 nM
17,B17,0.33 nM
18,B18,0.27 nM
19,B19,0.29 nM
20,B20,0.17 nM
21,B21,0.28 nM
22,B22,0.52 nM
23,B23,0.24 nM
24,B24,0.2 nM
25,B25,0.24 nM
26,B26,0.35 nM
27,B27,0.25 nM

# Biological target: T1, human ROR1 (full-length, on the cell …)
# Experiment: flow cytometry, A549 cells
# Procedure: as §1
row,Binder,EC50
1,B1,0.2 nM
2,B2,0.27 nM
3,B3,0.27 nM
4,B4,0.85 nM
5,B5,0.91 nM
6,B6,0.31 nM
7,B7,0.18 nM
8,B8,0.23 nM
9,B9,0.22 nM
10,B10,1.38 nM
11,B11,0.3 nM
12,B12,0.22 nM
13,B13,0.56 nM
14,B14,0.2 nM
15,B15,0.34 nM
16,B16,0.54 nM
17,B17,0.29 nM
18,B18,0.55 nM
19,B19,0.21 nM
20,B20,0.23 nM
21,B21,0.28 nM
22,B22,0.58 nM
23,B23,0.21 nM
24,B24,0.19 nM
25,B25,0.34 nM
26,B26,0.28 nM
27,B27,0.45 nM

# Biological target: T1, human ROR1 (full-length, on the cell …)
# Experiment: flow cytometry, Jeko-1 cells
# Procedure: as §1
row,Binder,EC50
1,B1,0.08 nM
2,B2,0.07 nM
3,B3,0.13 nM
4,B4,0.06 nM
5,B5,0.04 nM
6,B6,0.08 nM
7,B7,0.03 nM
8,B8,0.03 nM
9,B9,0.07 nM
10,B10,0.06 nM
11,B11,0.09 nM
12,B12,0.08 nM
13,B13,0.13 nM
14,B14,0.08 nM
15,B15,0.12 nM
16,B16,0.11 nM
17,B17,0.09 nM
18,B18,0.17 nM
19,B19,0.07 nM
20,B20,0.04 nM
21,B21,0.05 nM
22,B22,0.43 nM
23,B23,0.05 nM
24,B24,0.08 nM
25,B25,0.08 nM
26,B26,0.11 nM
27,B27,0.11 nM

# Biological target: T1, human ROR1 (full-length, on the cell …)
# Experiment: flow cytometry, Ba/F3-ROR1 cells
# Procedure: as §1
row,Binder,EC50
1,B1,0.39 nM
2,B2,0.99 nM
3,B3,0.37 nM
4,B4,0.19 nM
5,B5,0.2 nM
6,B6,0.28 nM
7,B7,0.28 nM
8,B8,0.23 nM
9,B9,0.29 nM
10,B10,0.22 nM
11,B11,0.33 nM
12,B12,0.94 nM
13,B13,0.32 nM
14,B14,0.29 nM
15,B15,1.32 nM
16,B16,0.3 nM
17,B17,0.77 nM
18,B18,0.21 nM
19,B19,1.48 nM
20,B20,0.33 nM
21,B21,0.3 nM
22,B22,0.3 nM
23,B23,0.98 nM
24,B24,0.33 nM
25,B25,0.84 nM
26,B26,0.82 nM
27,B27,0.25 nM
